{"source": "patent US8133680", "key": {"[1]": {"target": "biotinylated bovine serum albumin (bovine) (UniProt P02769)", "sequence (P02769 25-607 limits assumed)": "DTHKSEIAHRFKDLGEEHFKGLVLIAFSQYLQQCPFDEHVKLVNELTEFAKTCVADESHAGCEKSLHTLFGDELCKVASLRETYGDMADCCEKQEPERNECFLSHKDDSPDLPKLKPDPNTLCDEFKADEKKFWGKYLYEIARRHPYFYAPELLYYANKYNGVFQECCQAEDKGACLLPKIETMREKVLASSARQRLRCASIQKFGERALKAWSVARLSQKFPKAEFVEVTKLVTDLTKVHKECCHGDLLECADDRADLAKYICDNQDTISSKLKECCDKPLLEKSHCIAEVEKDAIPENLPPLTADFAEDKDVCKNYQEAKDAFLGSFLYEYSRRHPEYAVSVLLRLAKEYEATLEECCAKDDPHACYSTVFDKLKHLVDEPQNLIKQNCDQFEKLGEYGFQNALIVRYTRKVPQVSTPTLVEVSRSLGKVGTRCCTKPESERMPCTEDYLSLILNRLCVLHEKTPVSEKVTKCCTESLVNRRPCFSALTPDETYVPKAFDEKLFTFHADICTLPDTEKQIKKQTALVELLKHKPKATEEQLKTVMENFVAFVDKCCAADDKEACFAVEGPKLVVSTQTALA", "test": "ellipsometry after affinity microcontact printing; second use of the biotinylated BSA stamp; control"}, "[2]": {"target": "biotinylated bovine serum albumin (bovine) (UniProt P02769)", "test": "ellipsometry after affinity microcontact printing; third use of the biotinylated BSA stamp; control"}, "[3]": {"target": "biotinylated bovine serum albumin (bovine) (UniProt P02769)", "test": "ellipsometry after affinity microcontact printing from biotinylated BSA stamp (1 mg/ml, 5 h); control"}}}
{"substance": "anti-goat IgG (antibody)", "values": [{"measurement": "change in ellipsometric thickness", "setting": "[1]", "value": 1.5, "unit": "nm"}, {"measurement": "change in ellipsometric thickness", "setting": "[2]", "value": 1.2, "unit": "nm"}, {"measurement": "change in ellipsometric thickness", "setting": "[3]", "value": 2.3, "unit": "nm"}]}
